{
  "source": "patent US20230096030A1",
  "about": "(UCB, published 2023)",
  "binders": {"B1": {"name": "anti-CD9 Fab-Y 7272 (Fab, V domains shown)", "VH": "QSLEESGGRLVTPGTPLTLTCTVSGFSLSSYAMGWVRQAPGKGLEWIGAIGSITATGYARWAKGRFSISKTSTTVDLKMTSPTTEDTATYFCAREIYVGSAYAFDIWGPGTLVTVSS", "VL": "AYDMTQTPASVEVAVGDTVTIKCQASQSISNYLAWYQQKPGQPPKLLIYLASTLASGVPSRFKGSGSGTEFTLTISDLECADAATYYCQQGYIDNVNKGFGGGTEVVVK", "notes": "Tested as Fab-Y: Fab with the GCN4 peptide (clone 7P14P) attached by a peptide linker to CH1; also called VR7272"}},
  "key": {"[1]": {"target": "T1, recombinant human CD9 long extracellular loop 2-human Fc fusion protein (10015-CD, R&D Systems) (human, UniProt P21926 112-195)", "T1 construct": "Bought reagent; the order here follows the printed name; also called CD9-loop2; long extracellular loop 2 peptide; not shown: human Fc", "T1 sequence": "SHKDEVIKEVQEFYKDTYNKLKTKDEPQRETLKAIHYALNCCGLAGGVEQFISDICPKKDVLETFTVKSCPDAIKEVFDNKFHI", "test": "BLI (Octet RED384), CD9 loop 2-Fc on AHC biosensors, Fab-Y 10 µg/mL", "source_text": "CD9 contains two extracellular loops: a short extracellular loop (loop 1: 34-55 in SEQ ID NO:2) and a long extracellular loop (loop 2: 112-195 in SEQ ID NO:2). We used biolayer interferometry to assess binding of our panel of CD9 Fab-Y antibodies (selected for binding to full length cell-expressed CD9) to the long extracellular loop 2 peptide using the Octet® RED384 System (FortéBio) with Anti-hlgG Fc Capture (AHC) Biosensors (FortéBio) at room temperature. Firstly, an array of 8 sensors was dipped in kinetics buffer (PBS 0.1%, BSA 0.02%, Tween 20) for 120 seconds to provide a baseline signal. Sensors were then moved to wells containing 200 μl of recombinant human CD9 long extracellular loop 2-human Fc fusion protein (10015-CD, R&D Systems®) at 2 μg/mL in kinetics buffer to immobilize the protein to the biosensor (100 seconds), followed by a second baseline step (180 seconds) in kinetics buffer to equilibrate the biosensors now coated with the CD9 long extracellular loop 2-human Fc fusion protein. No detachment of the peptide was observed during this step. Sensors were then dipped in wells containing one of the anti-CD9 Fab (10 μg/mL) to evaluate association of each antibody to CD9-loop2 (120 seconds), followed by dissociation in kinetics buffer (600 seconds). Anti-CD137 Fab-Y (11175) was used as negative control during the antibody association step. […]"}, "[2]": {"target": "T2, full length cell-expressed CD9 (human, UniProt P21926 2-228)", "T2 construct": "also called human CD9", "T2 sequence": "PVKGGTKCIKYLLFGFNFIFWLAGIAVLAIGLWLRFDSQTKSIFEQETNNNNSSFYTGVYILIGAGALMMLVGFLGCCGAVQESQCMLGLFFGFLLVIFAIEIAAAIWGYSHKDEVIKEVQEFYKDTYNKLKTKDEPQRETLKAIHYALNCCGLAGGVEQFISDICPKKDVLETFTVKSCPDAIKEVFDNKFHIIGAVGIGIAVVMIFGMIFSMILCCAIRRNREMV", "test": "selection on cells expressing CD9; method not described"}},
  "data": [
    {"binder": "B1", "values": [
      {"measurement": "binding result", "setting": "[1]", "value": "binds"},
      {"measurement": "binding result", "setting": "[2]", "value": "binds"}
    ]}
  ]
}
